Drawing on FireProtDB (doi:10.1006/jmbi.1996.0075), this text covers denaturant m value and unfolding free energy for one substance.

Several values for one entry are separate records, joined by “and”; a condition that tells them apart may be missing. Identical values can stand only once.

The conditions of the data set: Equus caballus, 20 °C, CD, reversible: yes; for unfolding free energy: Thermal.

Cytochrome c wild type, P00004, sequence (P00004 whole entry): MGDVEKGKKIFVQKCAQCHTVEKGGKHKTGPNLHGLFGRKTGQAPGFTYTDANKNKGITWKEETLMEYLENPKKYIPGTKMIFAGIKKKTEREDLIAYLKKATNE

On to Cytochrome c wild type, P00004, for which the denaturant m value by setting is: (pH 2, GdnHCl, glycine-HCl 5-10 mM, NaClO4 200 mM) 1.58 kcal/mol/M and 1.24 kcal/mol/M and 1.12 kcal/mol/M; (pH 7, GdnHCl, Sodium phosphate 5-10 mM, NaCl) 3.01 kcal/mol/M and 2.1 kcal/mol/M; (pH 7, Urea, Sodium phosphate 5-10 mM, NaCl) 1.2 kcal/mol/M and 0.86 kcal/mol/M. Moreover, the unfolding free energy runs as follows: (pH 3.9, Sodium acetate 5-10 mM, NaCl) 0.57 kcal/mol; (pH 6, Sodium phosphate 5-10 mM, NaCl) 1.39 kcal/mol; (pH 7, Sodium phosphate 5-10 mM, NaCl) 1.7 kcal/mol.
